Drawing on PMC9482650, “Quantitative fragmentomics allow affinity mapping of interactomes” (Nature Communications, 2022), this text covers pKd for four molecules.

Among the targets are DLG1_2, Q12959; GRIP2_7, Q9C0E4; MAGI2_2, Q86UL8; PARD3_3, Q8TEW0; SCRIB_1, Q14160; GRASP, Q7Z6J2; LDB3, O75112; FRMPD3, Q5JV73; PDLIM1, O00151; DLG4_2, P78352.
Test in all cases: holdup assay
Parameters in all cases: key: below the threshold = too weak to quantify, mostly under pKd 3.1 to 4
What all share (settings): plain residues with an end cap or a label only (N-terminal biotin on a linker: ado-ado)

The target in a further assay is T1, DVL3, Q92997.
T1 sequence (Q92997 244-331, limits assumed, looked up): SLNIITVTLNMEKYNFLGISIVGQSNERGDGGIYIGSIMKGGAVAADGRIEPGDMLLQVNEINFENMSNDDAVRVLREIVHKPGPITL

A further assay addresses T2, GRIP1_4, Q9Y3R0.
T2 sequence (Q9Y3R0 467-571, limits assumed, looked up): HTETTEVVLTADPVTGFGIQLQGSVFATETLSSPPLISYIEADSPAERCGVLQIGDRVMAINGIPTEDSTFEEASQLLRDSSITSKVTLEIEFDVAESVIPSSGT

The target in a further assay is T3, DFNB31_2, Q9P202.
T3 sequence (Q9P202 274-371, limits assumed, looked up): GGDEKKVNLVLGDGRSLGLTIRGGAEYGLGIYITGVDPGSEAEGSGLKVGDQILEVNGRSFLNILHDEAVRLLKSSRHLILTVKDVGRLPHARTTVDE

The target of the next assay is T4, PDZD7_3, Q9H5P4.
T4 sequence (Q9H5P4 857-944, limits assumed, looked up): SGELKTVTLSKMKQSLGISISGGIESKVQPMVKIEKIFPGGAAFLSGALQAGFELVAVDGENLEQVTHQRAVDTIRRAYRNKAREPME

The target of another assay is T5, LIN7B, Q9HAP6.
T5 sequence (Q9HAP6 88-185, limits assumed, looked up): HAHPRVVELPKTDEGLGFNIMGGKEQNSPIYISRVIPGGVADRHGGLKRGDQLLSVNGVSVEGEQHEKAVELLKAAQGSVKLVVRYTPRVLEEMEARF

Another assay addresses T6, SNTA1, Q13424.
T6 sequence (Q13424 82-180, limits assumed, looked up): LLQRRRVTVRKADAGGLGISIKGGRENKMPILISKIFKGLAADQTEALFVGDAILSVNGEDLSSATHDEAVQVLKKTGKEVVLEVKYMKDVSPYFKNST

For a further assay, the target named is T7, HTRA3, P83110.
T7 sequence (P83110 354-453, limits assumed, looked up): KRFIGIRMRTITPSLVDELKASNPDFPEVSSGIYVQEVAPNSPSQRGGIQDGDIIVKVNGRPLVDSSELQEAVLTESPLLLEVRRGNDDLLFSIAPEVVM

The target in another assay is T8, TIAM2, Q8IVF5.
T8 sequence (Q8IVF5 885-986, limits assumed, looked up): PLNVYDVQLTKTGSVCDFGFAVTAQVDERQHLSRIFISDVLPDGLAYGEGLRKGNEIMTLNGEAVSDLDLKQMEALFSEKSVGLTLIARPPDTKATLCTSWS

In the next assay the target is T9, APBA1_1, Q02410.
T9 sequence (Q02410 651-752, limits assumed, looked up): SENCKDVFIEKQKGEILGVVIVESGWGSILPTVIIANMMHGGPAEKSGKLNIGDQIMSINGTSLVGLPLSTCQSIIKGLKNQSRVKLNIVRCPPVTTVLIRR

The next assay concerns the target T10, DFNB31_1, Q9P202.
T10 sequence (Q9P202 135-233, limits assumed, looked up): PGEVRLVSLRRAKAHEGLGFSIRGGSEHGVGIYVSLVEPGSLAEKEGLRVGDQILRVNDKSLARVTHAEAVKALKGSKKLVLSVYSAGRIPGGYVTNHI

The target of another assay is T11, PTPN13_1, Q12923.
T11 sequence (Q12923 1088-1188, limits assumed, looked up): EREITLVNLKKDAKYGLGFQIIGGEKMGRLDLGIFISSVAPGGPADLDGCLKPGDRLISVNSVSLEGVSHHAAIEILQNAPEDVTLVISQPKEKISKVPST

For a further assay, the target named is T12, DFNB31_3, Q9P202.
T12 sequence (Q9P202 811-907, limits assumed, looked up): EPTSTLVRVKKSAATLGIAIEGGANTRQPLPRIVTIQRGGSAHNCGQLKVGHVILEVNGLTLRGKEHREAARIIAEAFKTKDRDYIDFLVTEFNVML

A further assay deals with T13, LIN7A, O14910.
T13 sequence (O14910 103-200, limits assumed, looked up): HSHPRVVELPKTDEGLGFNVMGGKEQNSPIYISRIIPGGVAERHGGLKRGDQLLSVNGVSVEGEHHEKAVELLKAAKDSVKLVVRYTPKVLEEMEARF

A further assay has as its target T14, CARD11, Q9BXL7.
T14 sequence (Q9BXL7 662-765, limits assumed, looked up): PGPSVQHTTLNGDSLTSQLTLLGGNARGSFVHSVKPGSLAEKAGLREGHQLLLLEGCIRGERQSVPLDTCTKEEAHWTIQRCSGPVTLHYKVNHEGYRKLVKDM

Chain of PDLIM1, O00151 (O00151 1-87): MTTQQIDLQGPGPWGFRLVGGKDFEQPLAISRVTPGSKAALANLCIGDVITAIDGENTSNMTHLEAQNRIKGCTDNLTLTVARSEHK
Chain of DLG1_2, Q12959 (Q12959 314-412): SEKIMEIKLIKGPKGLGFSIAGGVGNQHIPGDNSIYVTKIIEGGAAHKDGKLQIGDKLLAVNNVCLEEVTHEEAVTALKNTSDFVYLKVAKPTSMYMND
Chain of LDB3, O75112 (O75112 1-94): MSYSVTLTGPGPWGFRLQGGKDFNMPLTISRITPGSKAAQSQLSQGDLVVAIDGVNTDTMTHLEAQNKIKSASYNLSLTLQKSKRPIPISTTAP
Chain of FRMPD3, Q5JV73 (Q5JV73 12-100): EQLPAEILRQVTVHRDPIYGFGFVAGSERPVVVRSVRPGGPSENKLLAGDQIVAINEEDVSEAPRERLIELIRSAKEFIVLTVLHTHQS
Chain of DLG4_2, P78352 (P78352 155-259): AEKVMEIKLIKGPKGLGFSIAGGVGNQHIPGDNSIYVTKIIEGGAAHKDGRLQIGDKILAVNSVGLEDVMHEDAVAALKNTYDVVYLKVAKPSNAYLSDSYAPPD
Chain of MAGI2_2, Q86UL8 (Q86UL8 410-522): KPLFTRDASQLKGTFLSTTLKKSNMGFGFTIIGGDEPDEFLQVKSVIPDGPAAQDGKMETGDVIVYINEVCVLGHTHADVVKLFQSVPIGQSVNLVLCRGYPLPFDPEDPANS
Chain of GRASP, Q7Z6J2 (Q7Z6J2 96-193): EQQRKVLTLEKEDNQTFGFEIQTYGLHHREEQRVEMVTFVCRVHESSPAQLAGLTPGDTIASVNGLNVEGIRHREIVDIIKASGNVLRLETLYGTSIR
Chain of SCRIB_1, Q14160 (Q14160 718-814): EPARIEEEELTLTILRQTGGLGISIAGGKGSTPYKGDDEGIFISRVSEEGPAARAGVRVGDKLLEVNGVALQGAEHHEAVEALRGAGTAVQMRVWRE
Chain of GRIP2_7, Q9C0E4 (Q9C0E4 934-1023): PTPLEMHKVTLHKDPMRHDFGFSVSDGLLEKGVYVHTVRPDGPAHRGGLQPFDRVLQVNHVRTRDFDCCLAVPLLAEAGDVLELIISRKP
Chain of PARD3_3, Q8TEW0 (Q8TEW0 582-685): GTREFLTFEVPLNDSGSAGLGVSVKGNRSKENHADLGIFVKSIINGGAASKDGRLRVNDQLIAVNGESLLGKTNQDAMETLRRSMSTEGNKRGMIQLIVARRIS

Usually pKd stands for the Kd on a negative log10 scale, so that one unit is a factor of ten. With QFTLRHWLKV [SLC6A3, Q01959], the negative logarithm of the Kd (pKd) entry with DVL3, Q92997 was “below the threshold”; in the assay with GRIP1_4, Q9Y3R0, “below the threshold”; in the assay with DLG1_2, Q12959, “below the threshold”; with GRIP2_7, Q9C0E4, “below the threshold”; with DFNB31_2, Q9P202, “below the threshold”; with MAGI2_2, Q86UL8, 3.68. Besides, the pKd result with PDZD7_3, Q9H5P4 was “below the threshold”; with LIN7B, Q9HAP6, “below the threshold”; with PARD3_3, Q8TEW0 it was “below the threshold”; with SCRIB_1, Q14160, “below the threshold”; with GRASP, Q7Z6J2, 3.8; in the assay with LDB3, O75112, “below the threshold”. The negative logarithm of the Kd (pKd) result in the assay with SNTA1, Q13424 was “below the threshold”; with FRMPD3, Q5JV73 it was “below the threshold”; with HTRA3, P83110 it was “below the threshold”; with TIAM2, Q8IVF5, 4.46; in the assay with APBA1_1, Q02410, “below the threshold”; with DFNB31_1, Q9P202, 3.47. In addition, the pKd entry in the assay with PTPN13_1, Q12923 is “below the threshold”; in the assay with PDLIM1, O00151, “below the threshold”; in the assay with DFNB31_3, Q9P202, “below the threshold”; with LIN7A, O14910, “below the threshold”; in the assay with DLG4_2, P78352 it was “below the threshold”; with CARD11, Q9BXL7, “below the threshold”.
Regarding DQPLEKSTKL [AKAP10, O43572], the pKd entry with DVL3, Q92997 was “below the threshold”; with GRIP1_4, Q9Y3R0, “below the threshold”; with DLG1_2, Q12959, “below the threshold”; with GRIP2_7, Q9C0E4, “below the threshold”; in the assay with DFNB31_2, Q9P202, “below the threshold”; with MAGI2_2, Q86UL8 it was “below the threshold”. Further, the negative logarithm of the Kd (pKd) with PDZD7_3, Q9H5P4 is 4.54; with LIN7B, Q9HAP6, “below the threshold”; with PARD3_3, Q8TEW0 it was “below the threshold”; with SCRIB_1, Q14160, 3.72; in the assay with GRASP, Q7Z6J2, 4.06; with LDB3, O75112, “below the threshold”. Further, the negative logarithm of the Kd (pKd) was 3.71 with SNTA1, Q13424; “below the threshold” with FRMPD3, Q5JV73; “below the threshold” with HTRA3, P83110; 4.04 in the assay with TIAM2, Q8IVF5; “below the threshold” with APBA1_1, Q02410; 3.73 in the assay with DFNB31_1, Q9P202. Further, the negative-log Kd (pKd) entry with PTPN13_1, Q12923 is “below the threshold”; with PDLIM1, O00151, “below the threshold”; in the assay with DFNB31_3, Q9P202, 3.68; with LIN7A, O14910 it was “below the threshold”; with DLG4_2, P78352, “below the threshold”; in the assay with CARD11, Q9BXL7, “below the threshold”.
With LEPAVRSSEL [SH2D3C, Q8N5H7], the pKd result was “below the threshold” with DVL3, Q92997; “below the threshold” with GRIP1_4, Q9Y3R0; 4.29 in the assay with DLG1_2, Q12959; “below the threshold” with GRIP2_7, Q9C0E4; “below the threshold” with DFNB31_2, Q9P202; “below the threshold” with MAGI2_2, Q86UL8. Also, the pKd with PDZD7_3, Q9H5P4 is 4.71; with LIN7B, Q9HAP6, “below the threshold”; with PARD3_3, Q8TEW0, “below the threshold”; with SCRIB_1, Q14160, 3.78; with GRASP, Q7Z6J2, 4.43; with LDB3, O75112 it was “below the threshold”. The pKd with SNTA1, Q13424 was 3.95; in the assay with FRMPD3, Q5JV73, “below the threshold”; with HTRA3, P83110, “below the threshold”; with TIAM2, Q8IVF5 it was “below the threshold”; with APBA1_1, Q02410, “below the threshold”; with DFNB31_1, Q9P202, “below the threshold”. Besides, the pKd result was “below the threshold” with PTPN13_1, Q12923; 3.5 with PDLIM1, O00151; “below the threshold” with DFNB31_3, Q9P202; “below the threshold” in the assay with LIN7A, O14910; “below the threshold” with DLG4_2, P78352; “below the threshold” with CARD11, Q9BXL7.
As for RELVMRVTTV [MARCHF4, Q9P2E8], the pKd result with DVL3, Q92997 was “below the threshold”; with GRIP1_4, Q9Y3R0, “below the threshold”; with DLG1_2, Q12959, 5.41; in the assay with GRIP2_7, Q9C0E4 it was “below the threshold”; with DFNB31_2, Q9P202 it was “below the threshold”; with MAGI2_2, Q86UL8, 5.12. For the same molecule, the negative logarithm of the Kd (pKd) with PDZD7_3, Q9H5P4 is 5.28; with LIN7B, Q9HAP6, 4.2; with PARD3_3, Q8TEW0 it was “below the threshold”; with SCRIB_1, Q14160, 4.67; in the assay with GRASP, Q7Z6J2, 4.63; with LDB3, O75112 it was “below the threshold”. Further, the pKd with SNTA1, Q13424 is 5.1; with FRMPD3, Q5JV73, “below the threshold”; with HTRA3, P83110, “below the threshold”; in the assay with TIAM2, Q8IVF5, 3.76; in the assay with APBA1_1, Q02410, “below the threshold”; in the assay with DFNB31_1, Q9P202 it was 3.97. The pKd result with PTPN13_1, Q12923 is “below the threshold”; in the assay with PDLIM1, O00151, “below the threshold”; with DFNB31_3, Q9P202 it was 4.33; with LIN7A, O14910, 3.7; with DLG4_2, P78352, 5.28; in the assay with CARD11, Q9BXL7, “below the threshold”.
